The values below come from the supplement of paper PMC12636428.

In this data set the test system is Saccharomyces cerevisiae. In words: transcriptional activation domain activity (GFP:mCherry ratio, weighted mean of sorted bins, harmonized to initial dataset scale) (arbitrary fluorescence ratio units); higher = stronger transcriptional activation. The settings on record: beta-estradiol 1 µM; induction time 4 h. A digest of the protocol:
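Barcoded protein tiles fused to an estradiol-inducible synthetic transcription factor were integrated at the yeast URA3 locus, in diploids carrying a GFP reporter. Cultures were diluted 1:5 into SC with 1 uM beta-estradiol, held 4 hours at 30 °C, sorted into 8 bins by GFP:mCherry ratio, and barcodes sequenced. Tiles under 50 reads were discarded. Activation activity is the read-weighted mean of bin median fluorescence, averaged across barcodes, then linearly mapped onto the initial dataset scale.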

Regarding “PSRPATPPRSSSAPTGISPNPRTRTCSSASCCASSRSPPSTTSPPTPPAAAAP”, the “transcriptional activation domain activity” value is 51100.
For “LASISSLQSSQSLDQNFSIPQSPPLSSMSFNFLTGNINETNQNHSNHQHSKSG” the value was 22700; for “MSVVKEENPDTPGGTTVQDVDNRLRQLIQACSPFHMLKNHNLLVLYLLIVPSA”, 53700.
Regarding “EAEDGAEKPKRGRKRKEPPAEAEANGDEPAPAAEEEEAPPAKKTKPSSSPLAK”, the “transcriptional activation domain activity” value was 27800.
For “TPIFMLIRIMIIGAHGVYQTAYRIVTKTQWEDGREIEDVYTYVGNERIDIKIV” the value was 28300; for “VAVARTKARKAVVGIEKVEIAAEVEATPEIVTAARTRERKAVVGIESAETVAE”, 45800.
For “MSDHRIIIVLAFFLIFFFNPPPLPLPTYPYQYSLLTYSLFFEPFFFSFPFFFS” the value was 63100; for “GGISKGENAHNFQNDTKKNMSTSNLFPFSFSNTDLTALFTHPEGPNCTNTNNG”, 56600.
The same measure for “RSEKRSEERSSRSGPTDRVEGQERGSDRERGREKRGSDRESSRRDRGGEGERA”: 31700.
For the sequence “MCFRILLSFLHVHPLFENALFYEISLICLLISWRSSTCSMHLLFIFIFILFFC”, the “transcriptional activation domain activity” value worked out at 42200.
As to “MAPSASAGGSGAAKPKKTRAKHACRECNSRRVKCNVTERQPCTNCAASGATCE”, the “transcriptional activation domain activity” value was 11700.
The same measure for “MFACPYLGLLCLSVTSMPYPFSQLFQPFISPRFCPECAPFSFFLHSFLGFHLT”: 52200; for “ETVQKYDGYRPDILSIWNNEFYPIGKYNDDMTGFKFQMRIKEMQEFLDMEKYS”: 68500; for “GVERNHLSVFRPVSFSFSSWFMLLLFFCFRGVELVILFPDCSWFLCIPLFYSF”: 67700.
For “MQQLFTFGSLFFPSFHPFFFFFFFFCHPSFLFFFLPSFLPFFLFFFLPSFLPF”, the “transcriptional activation domain activity” value was 58000.
For “MLFLMCSLFFFVVFFLWSFFCGLLSLWCICYDISVGAWLTFGLLLVLWLLCIC” the value was 23900; for “GYRIVKMLGTVYGITVRSRNWAAGLGMVLKSVVGGELRWFTNLLYTARNDAIG”, 48300.
The same measure for “EWAPDVLRKSAKTFTQEGPMVKLQIVTLAAKLLVLSPVDPRLTLLCRYVFSLA”: 46000.
For “FLLCTFFAIFAFLLCYLLAFFSFHVFLYDDSLFLFYYCMSAACTFFCCMFLEF” the value was 39600; for “MSSNYENQAQQESDQGSSSKSQKSRHRASVACATCRERRIRCVVPAGEASCAQ”, 43100; for “MPTITLAWPERAYFYSLLVVSLLSAKLLHVFSHLTTIPIFLFLLYFPTFLFLD”, 59600.
Take “ALRDSKSSDPKVKKEGEDFLAQLRIGKSYLHGLDAEGRPMCIVRARLHRAGEQ”: the “transcriptional activation domain activity” value came to 48900.
For “ELILVQDLCGTFCCSMQFLVLMDLLGNVVLPSSVIFFYYLIFAYFFGYPVAMP” the value was 60100.
The same measure for “KSSEAAPAEENKPSPEKNGKGKQGEDKGGNNGKENKGGDKGGGKGAQSKKGKK”: 31600; for “SLHKIHLVYRDVLRDKLRASVGCSRIRKILRSPPLYPTWMRCLFAFICASIIC”: 57600; for “PQQNIAPPFLNTNSSATDSNPNTNLEDSLFFDHDLLSSSITNTNNGQGSNNGR”: 24800.
For “EVVLLPDLCGFCCFSMRFVVLLDLIGTLTLPVTACYLVYLIYVIASGNGPFPL” the value was 46800; for “YPFLLKLCFDIFLLPLHFFYFPFFFSLITHYIFFFTGTLSHLYICFILLCLFL”, 36400.
In the case of “MDEEADEKGGKRRTSRACDGCRRRKIRCIASGEANSSEKAPCVNCAQSKLSCT”, the “transcriptional activation domain activity” value was 27500.
The same measure for “DEDPAKKGKKKASEPAATKVKAARGRKSKAAATEGSEAGPSKPPAKGRGKKAA”: 15800; for “KRVKKEETVEKKPAVETEAPKKRGRKAAVSASAEEPKAAPAKRSRRKVSATAA”: 13300.
The same measure for “IRIADMHANFFYKNINYTLSLFIFQIWCHFNSTYLFDYTLLMLFNLLFTSLPV”: 37100; for “STMHSNIGYIATLCLNLTLLLPLKDHPMVNNYVLVLVNSYWVLTGIWWFIFQQ”: 35000; for “RNGDKDSGHSRHKDRRHEHRSERRRYSDEGEEDRHRSHRSSHRSSRRRSRSRS”: 31900.
With “QNAIELTLLCITLIASDTLLLLRVSALCADRSSGVWGISYFYIIRRLLWGVYF”, the “transcriptional activation domain activity” value was 68700.
For “FLVLRYGALIGHVPLFYNVFADPCKTPHLIHILAFYHYIFVFVLTALTTVLLV” the value was 49400; for “RGLVLCLCLCITLKTAFHMIAVYQPLHPLFTSIDLGHLQPQPFCKLGMILGIM”, 65900; for “MKAEYITLINLLVHPSFVLWESPLPTLSFFFFFFFFLAWSPFRVFSLFVIPSL”, 50300.
For “MAIDCLALHIPTCVNLWGHVLYVQLVTVMYPSHFFFSFYFIFIFILFLFFLFF” the value was 14300.
For “YVVLQGLSGAASGFLQIVPLIIYYVKLFLMGSTPRSVYKIKYTLRHVSWGTLF” the value was 66600; for “GFHHLLPVFQMLLFKLDHRLYMNIGDVAKFLNITTINVLLLQLTDLHSLINIP”, 54900.
As for “FTKTIMHITLILNILMNMCVAPTLLPLQVYYWLTKYYCACHGCLPHFTVIALF”, the “transcriptional activation domain activity” value is 60900.
The same measure for “KLRGYGFVCQMLQLPIVVLQRTKWVRGRETLNNVCFWASMILGLSLVRCLFPL”: 50200.
As to “IPSLLSLSFYCLGFLSFAISSFSFPSFPLYHYPLCLGFLYSAGWLVGGYLWLY”, the “transcriptional activation domain activity” value was found to be 77000.
For “ERVIGGIQEDLLLIKTFLTRLSLSHHIHNFHADSWSLGHLASLSWYSFMVWFL” the value was 80000; for “LLAWGYVLFNPFAIYSLPYTVLFAFLSLSYLVLTFVLTLPSSLPFYHSKYWFQ”, 66900; for “LLHILCFLMNLILTTLTLFVLLRDHLQLSCNVYTGLFFSCHTVSVAFSGVILL”, 66200.
For “SVASMNSNYLLPVNSHGYKHISNLDELDDLLSLTYSDNNLLSASNNSDFNNSN” the value was 88400; for “VGSAINTRLTTPKLVDSPKRPGCLSISRKDQHETYLSLLMRLVVASKMCLSAY”, 50800; for “MIMYKIYFYTHFRLFFYICFYVHVEFSKPILLHVVLKLIKQLVFLSTYHLFLL”, 47900.
For “PTTSFFFWYRLYCSVLLSIGILISIPTLWILPSCFLPNHWKALWVVVLSFLGW” the value was 52400; for “RIESHLSEREYKLQTFAEFLRVPDNGSLDIESLDSSLIENTLNSHDVTNQALD”, 26700; for “TKFYPNKSIETQLMKNKYCDVVHLTRYAAWSNNKKDQDTSSQPLIDEIFGLYS”, 61500.
Take “YLVRHRGEIFDNFQARKEQLLCPVYIRWLRLIWQILLSCCHVIFKSHPWMVFM”: the “transcriptional activation domain activity” value turned out to be 57700.
The same measure for “VLLVVMFFGVLHKRNATHLWNLLYFQGLFWILAATMTELPSVVCLPYSPPLRC”: 57400.
Turning to “GPLCMDQYRRIFGVTRRPGLSVDSTVLASDLNGRVSILVLLRNRLFRLSLPTG”, the “transcriptional activation domain activity” value is 42400.
The same measure for “EKEESDEDESEKGSAAGGRGKAALKTWVKRVRLIRDKGTLLGKGFGYVQFNDR”: 69000.
The same measure for “GEGERGSDGRQKEGARERGRRRETRKQNQKRGRGGRGGRGRGEGGAKSETQET”: 17200; for “TLLIASLLVVLCLLRRFLLSILCNRDFYMIKFYTFFLYQILLCSLLKCLRLLW”: 80500.
The same measure for “ILALNLSCFDTLCYCYGFWSRLFFYLLLLLMHHLHYHAIQNQSLDLFALHIYR”: 78000; for “SDASEGSKGRAREDPSDRAVVEYQGLSRFSSIPEKEKVWAYVVKIVKLLATTK”: 34600.
Consider “EAVPHQDNDSFRSEKKEGEAEVQIVEDVGSSIYGCDRTQRTLKNRHIQLIGVG”, for which the “transcriptional activation domain activity” value was 50200.
The same measure for “MNAQQLSGTRHKKEIKRRTKTGCLTCRKRRIKCDEGHPTCRNCQKSKRECLGY”: 38600; for “LLRQQLVYTNHIYLYYFAIISNTLIRFIWILYIPARGPDIILRTFIAALFEML”: 54200.
“MLFARLHPVADETLIPFFCFWPSRLFVVLLVSFLHLIILFLSCFFFNCFLLFF”: the “transcriptional activation domain activity” value was determined as 50300.
For “MYILTIIPFFKHMSFFSFFLSCFFMSLLIVLLLLLLLLFSLLLLLLFFFPRPL”, the “transcriptional activation domain activity” value was 54400.
For the sequence “TSSSEESSNKGQRQLTVSIDSAAHHDNSTIPLDFMPRDALHGFDWSEEDDMSD”, the “transcriptional activation domain activity” value was 39300.
The same measure for “IHEPDQPLFSSFFSFFFVSFLSLIPPPLFPSSFPFLLFLPFLPPSLSLLSLIF”: 35500; for “MAKCIVTQTFLAASKTKTGYTIHQIRYTMTFWEIYENLLAIYLLIHPQWHLSF”: 40200.
The same measure for “CFCCNYFKVPLFCCSLSLYQTIRFFLIFLLLLLQRPSFSVFLVNSILLRFFPL”: 37600; for “KDGKNEVIVDMQRVRERKREIVNSFRGGSEKRVADAGVTVLMGSASFVDSKTV”: 34900; for “VFFFLVIALYPFFSSLFTRHGFYTFSPFNCQLSWLFFQWGHSILLFLLRLVSY”: 46600.
On to “HRVSMFLGYNPGNIVSNCRRCLDQWGPDILIHPSRIYLVVLPWLPPFFRKQLR”, for which the “transcriptional activation domain activity” value amounted to 56400.
For “MGGKASWCVFSFCLLFPLYFLLSLPPSFFIFHFYCVLALLPLPLPFPFFPSIC” the value was 58700.
